Data as given in article PMC5701251.

Molecular target: gp49d, deletion mutant of the phage LKA1 tailspike protein LKA1gp49 without the N-terminal particle-binding domain (residues 1-167) (Pseudomonas phage LKA1)
Experiment: crystal structure; gp49d crystallised in 8% PEG 6000, 0.8 M NaCl, 0.1 M Na acetate pH 3.5 at 18 °C, 20 mg/ml; molecular replacement with gp61d; homotrimer

Substance: gp49d, deletion mutant of the phage LKA1 tailspike protein LKA1gp49 without the N-terminal particle-binding domain (residues 1-167) (domain or fragment)
- stoichiometry N: 3
